± gives the standard deviation of the averaged measurements.
Experiments:
[1] = test system: MCF7; experiment: percentage of EdU-negative (G0-arrested) nuclei per well, 72 h; higher = more G0 arrest; conditions: reference: sequence is the full UniProt precursor, the tested protein was the secreted form or ectodomain
[2] = test system: hTERT-HMEC; experiment: as above; conditions: reference: sequence is the full UniProt precursor, the tested protein was the secreted form or ectodomain
[3] = protein concentration 0.00775 µM
[4] = protein concentration 0.0775 µM
[5] = protein concentration 0.0225 µM
[6] = protein concentration 0.0239275 µM
[7] = protein concentration 0.239275 µM
[8] = protein concentration 0.03125 µM
[9] = protein concentration 0.3125 µM
[10] = protein concentration 0.0228571 µM
[11] = protein concentration 0.228571 µM
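Also: secreted proteins added to cultured cells, EdU pulse at the end, nuclei found by Hoechst imaging, EdU status from nuclear versus surrounding ring intensity ratio, PBS as neutral control.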

In the case of “MAQSRVLLLLLLLPPQLHLGPVLAVRAPGFGRSGGHSLSPEENEFAEEEPVLVLSPEEPGPGPAAVSCPRDCACSQEGVVDCGGIDLREFPGDLPEHTNHLSLQNNQLEKIYPEELSRLHRLETLNLQNNRLTSRGLPEKAFEHLTNLNYLYLANNKLTLAPRFLPNALISVDFAANYLTKIYGLTFGQKPNLRSVYLHNNKLADAGLPDNMFNGSSNVEVLILSSNFLRHVPKHLPPALYKLHLKNNKLEKIPPGAFSELSSLRELYLQNNYLTDEGLDNETFWKLSSLEYLDLSSNNLSRVPAGLPRSLVLLHLEKNAIRSVDANVLTPIRSLEYLLLHSNQLREQGIHPLAFQGLKRLHTVHLYNNALERVPSGLPRRVRTLMILHNQITGIGREDFATTYFLEELNLSYNRITSPQVHRDAFRKLRLLRSLDLSGNRLHTLPPGLPRNVHVLKVKRNELAALARGALVGMAQLRELYLTSNRLRSRALGPRAWVDLAHLQLLDIAGNQLTEIPEGLPESLEYLYLQNNKISAVPANAFDSTPNLKGIFLRFNKLAVGSVVDSAFRRLKHLQVLDIEGNLEFGDISKDRGRLGKEKEEEEEEEEEEEETR [Q7Z5L7]”, the “percentage of EdU-negative” value [1, 3] is reported as 24.5 ± 1.1%, the “percentage of EdU-negative” value [1, 4] is reported as 23.2 ± 0.88% and the “percentage of EdU-negative” value [2, 3] is reported as 4.64 ± 0.6%. For the same sequence, the “percentage of EdU-negative” value [2, 4] was 5.72 ± 1.3%.
With “MKGICSDAILVLATSMWMAFAIDFPLPMASERGQLDKTIVECLKNVNKCWFLSYIKPSEPICGSDQVTYSSDCHLCSKILFEGLNITKLYDGQCENS [P0C7L1]” the “percentage of EdU-negative” value [1, 5] was 23.2 ± 2.9%, the “percentage of EdU-negative” value ([1]; protein concentration 0.225 µM) was 26.1 ± 0.36% and the “percentage of EdU-negative” value [2, 5] was 5.76 ± 1.6%. The “percentage of EdU-negative” value ([2]; protein concentration 0.225 µM) was 7.03 ± 0.23%.
For “MGTLSAPPCTQRIKWKGLLLTASLLNFWNLPTTAQVTIEAEPTKVSEGKDVLLLVHNLPQNLTGYIWYKGQMRDLYHYITSYVVDGEIIIYGPAYSGRETAYSNASLLIQNVTREDAGSYTLHIIKGDDGTRGVTGRFTFTLHLETPKPSISSSNLNPRETMEAVSLTCDPETPDASYLWWMNGQSLPMTHSLKLSETNRTLFLLGVTKYTAGPYECEIRNPVSASRSDPVTLNLLPKLPKPYITINNLNPRENKDVLNFTCEPKSENYTYIWWLNGQSLPVSPRVKRPIENRILILPSVTRNETGPYQCEIRDRYGGIRSDPVTLNVLYGPDLPRIYPSFTYYRSGEVLYLSCSADSNPPAQYSWTINEKFQLPGQKLFIRHITTKHSGLYVCSVRNSATGKESSKSMTVEVSDWTVP”, the “percentage of EdU-negative” value [1, 6] was 25 ± 2.2%, the “percentage of EdU-negative” value [1, 7] was 25.7 ± 1.8% and the “percentage of EdU-negative” value [2, 6] was 5.16 ± 0.84%. For the same sequence, the “percentage of EdU-negative” value [2, 7] was 7.5 ± 0.26%.
For “MKLAVTLTLVTLALCCSSASAEICPSFQRVIETLLMDTPSSYEAAMELFSPDQDMREAGAQLKKLVDTLPQKPRESIIKLMEKIAQSSLCN”, the “percentage of EdU-negative” value [1, 8] was 22.8 ± 2.1%, the “percentage of EdU-negative” value [1, 9] was 24.6 ± 0.57% and the “percentage of EdU-negative” value [2, 8] was 4.77 ± 0.77%. The “percentage of EdU-negative” value [2, 9] was 4.91 ± 0.97%.
With “MRERPRLGEDSSLISLFLQVVAFLAMVMGTHTYSHWPSCCPSKGQDTSEELLRWSTVPVPPLEPARPNRHPESCRASEDGPLNSRAISPWRYELDRDLNRLPQDLYHARCLCPHCVSLQTGSHMDPRGNSELLYHNQTVFYRRPCHGEKGTHKGYCLERRLYRVSLACVCVRPRVMG [Q9H293]” the “percentage of EdU-negative” value [1, 10] was 24 ± 0.49%, the “percentage of EdU-negative” value [1, 11] was 36.9 ± 1.7% and the “percentage of EdU-negative” value [2, 10] was 5.07 ± 0.33%. The “percentage of EdU-negative” value [2, 11] was 5.25 ± 1%.
“MIPGGLSEAKPATPEIQEIVDKVKPQLEEKTNETYGKLEAVQYKTQVVAGTNYYIKVRAGDNKYMHLKVFKSLPGQNEDLVLTGYQVDKNKDDELTGF” was tested, and the “percentage of EdU-negative” value [1, 8] was 26.6 ± 0.69%, the “percentage of EdU-negative” value [1, 9] was 23.6 ± 2.5% and the “percentage of EdU-negative” value [2, 8] was 5.99 ± 0.58%. The “percentage of EdU-negative” value [2, 9] was 5.5 ± 0.67%.
For “MGPLSAPPCTEHIKWKGLLLTALLLNFWNLPTTAQVMIEAQPPKVSEGKDVLLLVHNLPQNLTGYIWYKGQIRDLYHYITSYVVDGQIIIYGPAYSGRETVYSNASLLIQNVTREDAGSYTLHIIKRGDGTRGVTGYFTFTLYLETPKPSISSSNLNPREAMETVILTCNPETPDASYLWWMNGQSLPMTHRMQLSETNRTLFLFGVTKYTAGPYECEIWNSGSASRSDPVTLNLLHGPDLPRIFPSVTSYYSGENLDLSCFANSNPPAQYSWTINGKFQLSGQKLFIPQITPKHNGLYACSARNSATGEESSTSLTIRVIAPPGLGTFAFNNPT [Q9UQ72]”, the “percentage of EdU-negative” value [1, 8] was 24.9 ± 4.1%, the “percentage of EdU-negative” value [1, 9] was 26.7 ± 1.1% and the “percentage of EdU-negative” value [2, 8] was 4.83 ± 0.7%. For the same sequence, the “percentage of EdU-negative” value [2, 9] was 5.46 ± 1.1%.
In the case of “MPMASPQTLVLYLLVLAVTEAWGQEAVIPGCHLHPFNVTVRSDRQGTCQGSHVAQACVGHCESSAFPSRYSVLVASGYRHNITSVSQCCTISGLKKVKVQLQCVGSRREELEIFTARACQCDMCRLSRY [Q96T91]”, the “percentage of EdU-negative” value [1, 5] is reported as 24.4 ± 0.81%, the “percentage of EdU-negative” value ([1]; protein concentration 0.225 µM) is reported as 22 ± 2.1% and the “percentage of EdU-negative” value [2, 5] is reported as 6.3 ± 1.5%. The “percentage of EdU-negative” value ([2]; protein concentration 0.225 µM) was 4.45 ± 1.1%.

Reference: the supplement of paper PMC11316812
